One experiment has as its target FtsZ (Bacillus subtilis) (UniProt P17865). The settings on record: cited from earlier work.
The target in experiment [1] is ClpXP complex (B. subtilis) (UniProt P50866).

Here are results for 2 molecules from PMC5889556.

In general, Kd refers to a measure of binding affinity in units of concentration. On to UgtP (from UniProt P54166), for which the Kd with FtsZ (Bacillus subtilis) is 38 nM.

B1: His-UgtP (enzyme)
chain: MNTNKRVLILTANYGNGHVQVAKTLYEQCVRLGFQHVTVSNLYQESNPIVSEVTQYLYLKSFSIGKQFYRLFYYGVDKIYNKRKFNIYFKMGNKRLGELVDEHQPDIIINTFPMIVVPEYRRRTGRVIPTFNVMTDFCLHKIWVHENVDKYYVATDYVKEKLLEIGTHPSNVKITGIPIRPQFEESMPVGPIYKKYNLSPNKKVLLIMAGAHGVLKNVKELCENLVKDDQVQVVVVCGKNTALKESLSALEAENGDKLKVLGYVERIDELFRITDCMITKPGGITLTEATAIGVPVILYKPVPGQEKENANFFEDRGAAIVVNRHEEILESVTSLLADEDTLHRMKKNIKDLHLANSSEVILEDILKESEMMTAKQKAKVLS
In the case of B1, in experiment [1], the in vitro ClpXP proteolysis assay with 5 mM ATP: percent of purified His-UgtP degraded after 45 min, by anti-His immunoblot amounted to 88% and the in vitro ClpXP proteolysis assay without ATP: percent of purified His-UgtP degraded, by anti-His immunoblot is 13%.
